These results are taken from article doi:10.1101/2020.12.12.421834 (bioRxiv, 2020).

Numbering of substitutions follows the chain as printed.

The chains are these.
T1: PD1 N-terminal loop-GST fusion protein (Homo sapiens)
T1 chain: LDSPDRPWNP

B1: M2-1 anti-PD1 antibody (human IgG4/k, without C-terminal His tag) (antibody, V domains shown)
VH: QVQLVESGGDVVQPGGSLRLSCSASGLVFRDYGMNWVRQAPGKGLEWVGLIWYDGTKKYYSDFVKGRFTISRDNSKNMLYLQMNNLRAEDTAIYYCARFLIGATRRGNAMDYWGQGTSVIVSS
VL: EVVLTQSPATLSLSPGERATLSCRASQSIDSDLAWSQQKTGQPPRLIIYDASNRATGIPARFSGSGSGTDFTLTISSLEPEDFAVYYCQQRSDWPLTFGGGTKVEIR
B2: 17D8 anti-PD1 antibody (human IgG4/k, without C-terminal His tag) (antibody, V domains shown)
VH: QVQLVESGGDVVQPGGSLRLSCAASGVAFSNYGMHWVRQAPGKGLEWVAVIWYDGSNKYYADSVKGRFTISRDNSKNMLYLQMNSLRAEDTAMYYCARNDDYWGQGTLVTVSS
VL: B1 VL with V2I, I29V, D30S, D32Y, S36Y, T40P, P43A, D93N, R107K
B3: M1-5 anti-PD1 antibody (human IgG4/k, without C-terminal His tag) (antibody, V domains shown)
VH: QVQLVESGGDVVQPGGSLRLSCTVSGAVFRDLGMEWVRQAPGKGLEWLAVIWYDGGRKHYADSVKGRFTISRDNSRNMLFLQMNGLRVDDTAMYYCTRSHSTDDYWGQGTLVTVSS
VL: EIVLTQSPATLSVSPGERATLSCRASQSISSDLAWFQQKPGQAPRLIIHGASKRATGIPARFSGSGSGTDFTLTISSLEPEDFAVYYCQQRDSWPLNFGGGTKVEIK
B4: M2-1 anti-PD1 antibody (human IgG4/kappa, C-terminal 6xHis) (antibody, V domains shown)
VH: B1 VH
VL: B1 VL
B5: M2-2 anti-PD1 antibody (human IgG4/kappa, C-terminal 6xHis) (antibody, V domains shown)
VH: B1 VH with F29I, R30S, T56S, M78I, I93M, I120T
VL: B1 VL with T40P
B6: M1-6 anti-PD1 antibody (human IgG4/kappa, C-terminal 6xHis) (antibody, V domains shown)
VH: QVQLVESGGDVVQSGGSLRLSCAVSGVVFSDYGFEWVRQAPGKGLEWVAVIWYDGSRKHYADSVQGRFTISRDNFRNMLYLQMTGLRVEDTAKYYCTRSHSHEDYWGQGTLVTVSS
VL: EIVLTQSPATLSLSPGERATLSCGASQNIDNSLAWFQQKPGQAPRLIIYDASKRATGIPARFSGSGSGTDFTLTISTLEPEDFAVYYCQQRDHWPLNFGGGTKVEVK
B7: M1-5 anti-PD1 antibody (human IgG4/kappa, C-terminal 6xHis) (antibody, V domains shown)
VH: B3 VH
VL: B3 VL
B8: M1-4 anti-PD1 antibody (human IgG4/kappa, C-terminal 6xHis) (antibody, V domains shown)
VH: B6 VH with S14P, V28T, S30G, Y32F, D62E, Q65R, F75S, L79M, Q82E
VL: B3 VL with V13L, S31N, D32Y, P40S, G50D, S52F, T56A, A60T, S93N
B9: M2-5 anti-PD1 antibody (human IgG4/kappa, C-terminal 6xHis) (antibody, V domains shown)
VH: QVQLVESGGDVVQPGGSLRLSCAASGVVFSDYGLYWVRQAPGKGLEWVALIWYDGSKKFYADSVKGRFSISRDNSKNMLYLQMNNLRADDSAIYYCSRGIRQGPWFAYWGQGTRVTVSP
VL: B1 VL with V2I, D30S, A34T, S36F, T40P, P43A, A84V, Q89L, R107K
B10: M2-3 anti-PD1 antibody (human IgG4/kappa, C-terminal 6xHis) (antibody, V domains shown)
VH: QGHLVESGGDVVLPGGSLRLSCTESGVDLSDFGIHWVRQTPGKGLEWVALIWYDGSKKFYADSVKDRFTISRDNSKNMVYLEMISLRVEDTAMYFCARGIRRGPWFTYWGPGTLVTVST
VL: B3 VL with A9V, T10I, V13L, K39T, H49Y, G50D, K53N, D92S, S93N, N97T
B11: M1-3 anti-PD1 antibody (human IgG4/kappa, C-terminal 6xHis) (antibody, V domains shown)
VH: QEWLVESGGDVVQPGGSLRLSCATSKVTFNDFGIHWVRQAPGKGLEWVAIIWYDGSRNHYADSVRGRFTLSRDNSKNMVHLHMSSLRTEDTAMYYCARGIHSNDDYWGQGTMVTVSS
VL: EIVLTQSPATLSLSPGERATLSCRTSQSVSSDLAWFQQKPGQAPRLFIFDASKRVNGIPARFSGSGSGTDFTLTISSLEPEDFAVYYCQQRTDWPLTFGGGSRVEIK
B12: M1-1 anti-PD1 antibody (human IgG4/kappa, C-terminal 6xHis) (antibody, V domains shown)
VH: B2 VH with S30R, N31D, N57K, A61G, I70V, Q82E, S85G, R87K
VL: EIVLTQSPATLSLSPGERATLSCRASQSVSNSLSWYQQNPGQSPRLIIYDTSKRATGIPARFSGSGSGTDFTLTINNLETEDFAVYYCHQRSDWPLTFGGGTKVEIK
B13: M1-7 anti-PD1 antibody (human IgG4/kappa, C-terminal 6xHis) (antibody, V domains shown)
VH: QLQLVESGGDVVQPGGSLRLSCAASGVVFSDFGLEWVRQAPGKGLEWLAVIWYDGSRKHYADSVKGRFTISRDNSKNMLYLQMNSLRVEDTAMYYCARCHSKEDYWGQGTLVTVSS
VL: EIEVTQSPATLSLSPGERATLSCRASQSIDTDLAWFQQRPGQTPRLIIYDASKRATGIPARFSGGGSGTDFTLTISSLEPEDFAVYYCQQRTTWPLTFGGGTKVEIK
B14: M1-2 anti-PD1 antibody (human IgG4/kappa, C-terminal 6xHis) (antibody, V domains shown)
VH: B13 VH with L2V, V28A, F32Y, L34M, M78I, V88A, E103D
VL: B13 VL with E3V, V4L, S7F, A25T, S28N, T31S, R39K, T43A, K53N, S76T
B15: 17D8 anti-PD1 antibody (human IgG4/kappa, C-terminal 6xHis) (antibody, V domains shown)
VH: B2 VH
VL: B1 VL with V2I, I29V, D30S, D32Y, S36Y, T40P, P43A, D93N, R107K
B16: M2-4 anti-PD1 antibody (human IgG4/kappa, C-terminal 6xHis) (antibody, V domains shown)
VH: QVQLVESGGDVVQPGGSLRLSCAASGVAFRNYGMHWVRQAPGKGLEWVAIIWYDGSNKYYADSVKGRFTISRDNSKNMLYLQMNSLRAEDTAMYYCARLSIGTTHYFDTDDYWGQGTSVTVSS
VL: EIVLTQSPATLSLSPGERATLSCRASQSVSSYLAWYQQKVGQAPRLIIFDASNRATGIPARFSGSGSGTDFTLTITSLDPEDFAVYYCQQRSAWPLTFGGGTKVEIR

The first test deals with T2, PD1 extracellular domain, without Fc fusion (Homo sapiens, UniProt Q15116). The test can be described thus: SPR. For orientation: SPR reads the build-up and loss of mass on a sensor chip optically.
T2 sequence (Q15116 25-170): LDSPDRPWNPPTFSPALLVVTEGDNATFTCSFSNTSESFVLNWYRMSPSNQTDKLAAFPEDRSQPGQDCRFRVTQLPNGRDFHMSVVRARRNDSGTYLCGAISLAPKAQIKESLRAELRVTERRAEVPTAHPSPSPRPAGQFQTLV
For B1, the binding result was “binds”.

With B2, the binding result is “binds”.

Regarding B3, the binding result was “binds”.

For a further test, the target named is T2, PD1 extracellular domain, without Fc …. The test can be described thus: ELISA. A general note: An ELISA detects its analyte on a solid surface through an enzyme-linked reagent.
Consider B4, for which the binding result is listed as “binds”.

On to B5, for which the binding result is on record as “binds”.

On to B6, for which the binding result is on record as “binds”.

Turning to B7, the binding result is given as “binds”.

As for B8, the binding result is on record as “binds”.

Take B9: the binding result was “binds”.

Regarding B10, the binding result is given as “binds”.

In the case of B11, the binding result is on record as “binds”.

The target in a further test is full-length human PD1 expressed on the surface of NS1 cells (human, UniProt Q15116). The test can be described thus: flow cytometry on cells. (Flow cytometry measures light scatter and fluorescence of single cells or particles in a stream.)
Chain of full-length human PD1 expressed on the surface of NS1 cells (Q15116 25-288): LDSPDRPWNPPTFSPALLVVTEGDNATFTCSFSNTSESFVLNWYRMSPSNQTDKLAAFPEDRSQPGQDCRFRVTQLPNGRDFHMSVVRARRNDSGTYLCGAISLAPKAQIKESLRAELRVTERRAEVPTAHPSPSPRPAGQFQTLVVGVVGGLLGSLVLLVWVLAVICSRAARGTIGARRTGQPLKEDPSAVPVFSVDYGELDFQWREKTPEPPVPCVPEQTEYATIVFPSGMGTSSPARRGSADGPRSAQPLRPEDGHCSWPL
On to B12, for which the binding result is on record as “binds”.

Regarding B13, the binding result is listed as “binds”.

Consider B14, for which the binding result is recorded as “binds”.

On to B4, for which the binding result is “binds”.

For B5, the binding result was “binds”.

Consider B6, for which the binding result is “binds”.

Regarding B7, the binding result is “binds”.

Turning to B8, the binding result is recorded as “binds”.

For B15, the binding result is “binds”.

Consider B9, for which the binding result is on record as “binds”.

Consider B10, for which the binding result was “binds”.

B16: the binding result is listed as “binds”.

For B11, the binding result is given as “binds”.

A further test concerns the target T1, PD1 N-terminal loop-GST fusion protein. The test can be described thus: ELISA.
As for B12, the binding result is given as “binds”.

Take B14: the binding result is listed as “no binding”.

With B4, the binding result is “binds”.

In the case of B5, the binding result is “binds”.

For B6, the binding result is recorded as “binds”.

Turning to B7, the binding result was “binds”.

Turning to B8, the binding result is “binds”.

For B9, the binding result is given as “binds”.

B10: the binding result is listed as “binds”.

Turning to B16, the binding result is listed as “binds”.

With B11, the binding result is given as “binds”.
